Experimental data published in publication PMC12277127 (Nucleic Acids Research, 2024).
Values belong to the binder of their own block, whether it stands above or below them.

Assays:
Conditions in all cases: both partners purified
[1] = target: T1, Proliferating Cell Nuclear Antigen (UniProt P12004 1-261); assay: SPR; SPRTN PIP-UBZ amine-coupled to a CM5 chip (~1000 RU); analytes monoUb, PCNA, monoUb-PCNA; 50 mM HEPES pH 7.4, 50 mM NaCl, 0.5 mM TCEP-HCl; steady-state affinity model
T1 construct: PCNA; plasmid pET16b-PCNA (Addgene #134898); also called PCNA; source: E. coli BL21(DE3), purified (Q Sepharose, heparin, SEC)

M1-linked tetraUb = target: T2, M1-linked tetraUb (UniProt P0CG48 1-304); assay: ITC; ubiquitin species titrated into the SPRTN fragment (arrows in Supplementary Figures 4A, 4D, 6A); 25°C; 50 mM HEPES pH 7.4, 50 mM NaCl, 0.5 mM TCEP-HCl; one-site binding model; at least 3 repeats, undetectable pairs 1 repeat
T2 construct: four ubiquitin units head to tail on one chain (M1-linked, linear); plasmid pET-24-tetraUb; also called M1-Ub4; source: E. coli BL21(DE3), purified (HisTrap, SEC)

M1-linked diUb = target: T3, M1-linked diUb (UniProt P0CG48 1-152); assay: as above
T3 construct: two ubiquitin units head to tail on one chain (M1-linked, linear); plasmid pET-47b-N-His-Ub2; The His tag was removed by HRV 3C only for the 15N-labelled M1-Ub2 of the NMR work, as far as the methods tell; also called M1-Ub2; M1-Ub2 WT; source: E. coli BL21(DE3), purified (HisTrap, SEC)

M1-linked hexaUb = target: T4, M1-linked hexaUb (UniProt P0CG48 1-456); assay: as above
T4 construct: six ubiquitin units head to tail on one chain (M1-linked, linear); plasmid pET-24-hexaUb; also called M1-Ub6; source: E. coli BL21(DE3), purified (HisTrap, SEC)

[2] = target: T5, M1-linked hexaUb (His-tagged M1-Ub6) (UniProt P0CG48 1-76; P0CG48 1-76; P0CG48 1-76; P0CG48 1-76; P0CG48 1-76; P0CG48 1-76); assay: ITC; MicroCal PEAQ-ITC, 25°C, 50 mM HEPES pH 7.4, 50 mM NaCl, 0.5 mM TCEP–HCl; one-site binding model; who was in the syringe is not told
T5 construct: ubiquitin unit 1 of 6, joined head to tail (M1-linked); ubiquitin unit 2 of 6; ubiquitin unit 3 of 6; ubiquitin unit 4 of 6; ubiquitin unit 5 of 6; ubiquitin unit 6 of 6; source: E. coli BL21(DE3), purified (HisTrap, SEC)

[3] = target: T6, M1-linked diUb (His-tagged M1-Ub2) (UniProt P0CG48 1-76; P0CG48 1-76); assay: as above
T6 construct: ubiquitin unit 1 of 2 (distal), joined head to tail (M1-linked); ubiquitin unit 2 of 2 (proximal); its I44 is printed as position 120 of the chain; also called linear diUb; source: E. coli BL21(DE3), purified (HisTrap, SEC)

[4] = target: T7, M1-linked tetraUb (His-tagged M1-Ub4) (UniProt P0CG48 1-76; P0CG48 1-76; P0CG48 1-76; P0CG48 1-76); assay: as above
T7 construct: ubiquitin unit 1 of 4, joined head to tail (M1-linked); ubiquitin unit 2 of 4; ubiquitin unit 3 of 4; ubiquitin unit 4 of 4; source: E. coli BL21(DE3), purified (HisTrap, SEC)

T1 sequence (P12004 whole entry): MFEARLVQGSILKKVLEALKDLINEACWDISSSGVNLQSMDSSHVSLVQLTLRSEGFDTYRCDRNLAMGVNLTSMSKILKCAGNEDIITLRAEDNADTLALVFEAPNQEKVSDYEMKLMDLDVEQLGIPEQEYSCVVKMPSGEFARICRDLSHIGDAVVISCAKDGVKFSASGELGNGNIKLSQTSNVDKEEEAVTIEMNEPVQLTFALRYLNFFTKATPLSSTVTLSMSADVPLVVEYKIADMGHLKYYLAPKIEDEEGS

Kd [1]: 12.8 ± 2 µM
B1: SPRTN PIP-UBZ (320-489) (domain or fragment, human, UniProt Q9H040 320-489, looked up)
chain: VSNSHQNVLSNYFPRVSFANQKAFRGVNGSPRISVTVGNIPKNSVSSSSQRRVSSSKISLRNSSKVTESASVMPSQDVSGSEDTFPNKRPRLEDKTVFDNFFIKKEQIKSSGNDPKYSTTTAQNSSSSSSQSKMVNCPVCQNEVLESQINEHLDWCLEGDSIKVKSEESL
notes: SPRTN, human, PIP box to UBZ, residues 320-489; plasmid pCold I-SPRTN-PIP-UBZ (320-489); Its purification is not described; amine-coupled to a CM5 chip for SPR

Kd (M1-linked tetraUb): 69.7 ± 6.9 µM | Kd (M1-linked diUb): 132 ± 3.9 µM | Kd (M1-linked hexaUb): 34.8 ± 3.8 µM
B2: SPRTN core region (26-240 aa), E112Q (domain or fragment, human, UniProt Q9H040 26-240, looked up)
chain: QESLSLVDASWELVDPTPDLQALFVQFNDQFFWGQLEAVEVKWSVRMTLCAGICSYEGKGGMCSIRLSEPLLKLRPRKDLVETLLHQMIHAYLFVTNNDKDREGHGPEFCKHMHRINSLTGANITVYHTFHDEVDEYRRHWWRCNGPCQHRPPYYGYVKRATNREPSAHDYWWAEHQKTCGGTYIKIKEPENYSKKGKGKAKLGKEPVLAAENKD
notes: SPRTN, human, residues 26-240 (MPD, ZBD and BR); plasmid pNIC28-SPRTN core (26-240), E112Q; also called SPRTN core (E112Q); SPRTN core E112Q; source: E. coli BL21(DE3), purified (Ni-NTA, TEV cleavage, SEC)

Kd [2]: ~35 µM | Kd [3]: ~132 µM | Kd [4]: ~70 µM
B3: SPRTN core region (E112Q), enzymatically inactive (domain or fragment, human, UniProt Q9H040 26-240, looked up)
chain: QESLSLVDASWELVDPTPDLQALFVQFNDQFFWGQLEAVEVKWSVRMTLCAGICSYEGKGGMCSIRLSEPLLKLRPRKDLVETLLHQMIHAYLFVTNNDKDREGHGPEFCKHMHRINSLTGANITVYHTFHDEVDEYRRHWWRCNGPCQHRPPYYGYVKRATNREPSAHDYWWAEHQKTCGGTYIKIKEPENYSKKGKGKAKLGKEPVLAAENKD
notes: SPRTN, human, residues 26-240 (plasmid pNIC28-SPRTN (26-240)), variant E112Q; also called SPRTN core (E112Q); ΔMIU, ΔC: 26–240 aa; source: E. coli BL21(DE3), purified (Ni-NTA, TEV cleavage, HisTrap flow-through, SEC)
